Measurements from patent US20260274993A1.

Assays:
[1] = target: VH4-34 endogenously expressed by cell line GA-10; assay: flow cytometry, EC50 of % parent (APC), GA-10 cells endogenously expressing VH4-34; curve in FIG. 5A rises to about 66 % at Log M about -7.2 without a plateau
[2] = target: VH4-34 endogenously expressed by cell line HBL-1; assay: flow cytometry, EC50 of % parent (APC), HBL-1 cells endogenously expressing VH4-34; curve in FIG. 5A rises to about 57 % at Log M about -7.2 without a plateau

- EC50 [1]: 1.52 nM
- EC50 [2]: 240 nM
B1: D011-1E11-5T2.IgG2a (antibody, V domains shown)
VH: QVQLVQSGAEVKKPGASMKVSCKASGYSFTGSTMNWVRQAPGQGLEWMGWINPYNGGTNYAQKFQGRVTMTRDTSISTAYMELSRLRSDDTAVYYCASRGKNGYDGRDFDCWGQGTLVTVSS
VL: EIVLTQSPATLSLSPGERATLSCKSTKSLLNSGGFSYLDWYQQKPGQAPRLLIYLVSNRFTGIPARFSGSGSGTDFTLTISSLEPEDFAVYYCFQSNYFPFTFGQGTKLEIKR
